From patent US10251952B2, “Humanized anti-tau(pS422) antibody brain shuttles and use thereof” (Hoffmann-La Roche Inc., priority 2014, dated 2019)

B1: VH14 with VL12: anti-human tau(pS422) antibody; VH SEQ ID NO: 50, VL SEQ ID NO: 34 (antibody, V domains shown)
VH: QQLVESGGGLVQPGGSLRLSCAASGFSLSSNAINWVRQAPGKGLEWVGYIAVSGNTYYASWAKGRFTISRDNSKNTLYLQMNSLRAEDTAVYYCGKSNIWGPGTLVTVSS
VL: DIQMTQSPSSLSASVGDRVTITCRASQGVRTNKLAWFQQKPGQPPKRLIYSASTLQSGVPSRFSGSGSGTEFTLTISSLQPEDFATYYCLGYFDCSIADCVAFGGGTKVEIK
modifications: humanized sequence
B2: VH14 with VL15: anti-human tau(pS422) antibody; VH SEQ ID NO: 50, VL SEQ ID NO: 35 (antibody, V domains shown)
VH: QQLVESGGGLVQPGGSLRLSCAASGFSLSSNAINWVRQAPGKGLEWVGYIAVSGNTYYASWAKGRFTISRDNSKNTLYLQMNSLRAEDTAVYYCGKSNIWGPGTLVTVSS
VL: DIQMTQSPSSLSASVGDRVTITCRASQGVRTNKLAWFQQKPGQPPKRLIYSASTLQSGVPSRFSGSGSGTEFTLTISSLQPEDFATYYCLGYFDSSIADSVAFGGGTKVEIK
modifications: humanized sequence
B3: VL17 with VH23: anti-human tau(pS422) antibody; VH SEQ ID NO: 55, VL SEQ ID NO: 37 (antibody, V domains shown)
VH: EVQVLESGGGLVQPGGSLRLSCAVSGFSLSSNAINWVRQAPGKGLEWVGYIAVSGNTYYADSVKGRFTISKDNSKNTVYLQMNSLRAEDTAVYYCGKSNIWGQGTLVTVSS
VL: DIQMTQSPSSLSASVGDRVTITCRSSQSVRTNKLAWFQQKPGQPPKRLIYSASTLDFGVPSRFSGSGSGTEFTLTISSLQPEDFATYYCLGYFDCSIADCVAFGGGTKVEIK
modifications: humanized sequence
B4: VL17 with VH22: anti-human tau(pS422) antibody; VH SEQ ID NO: 54, VL SEQ ID NO: 37 (antibody, V domains shown)
VH: EVQLLESGGGLVQPGGSLRLSCAASGFSLSSNAINWVRQAPGKGLEWVGYIAVSGNTYYADSVKGRFTISRDNSKNTLYLQMNSLRAEDTAVYYCGKSNIWGQGTLVTVSS
VL: DIQMTQSPSSLSASVGDRVTITCRSSQSVRTNKLAWFQQKPGQPPKRLIYSASTLDFGVPSRFSGSGSGTEFTLTISSLQPEDFATYYCLGYFDCSIADCVAFGGGTKVEIK
modifications: humanized sequence
B5: VL19 with VH19: anti-human tau(pS422) antibody; VH SEQ ID NO: 53, VL SEQ ID NO: 38 (antibody, V domains shown)
VH: QQLVESGGGLVQPGGSLRLSCAASGFSLSSNAINWVRQAPGKGLEWVGYIAVSGNTYYADSVKGRFTISKDNSKNTLYLQMNSLRAEDTAVYYCGKSNIWGQGTLVTVSS
VL: AQVMTQSPSSLSASVGDRVTITCRSSQSVRTNKLAWFQQKPGQPPKRLIYSASTLDFGVPSRFSGSGSGTEFTLTISSLQPEDFATYYCLGYFDCSIADCVAFGGGTKVEIK
modifications: humanized sequence
B6: VL19 with VH23: anti-human tau(pS422) antibody; VH SEQ ID NO: 55, VL SEQ ID NO: 38 (antibody, V domains shown)
VH: EVQVLESGGGLVQPGGSLRLSCAVSGFSLSSNAINWVRQAPGKGLEWVGYIAVSGNTYYADSVKGRFTISKDNSKNTVYLQMNSLRAEDTAVYYCGKSNIWGQGTLVTVSS
VL: AQVMTQSPSSLSASVGDRVTITCRSSQSVRTNKLAWFQQKPGQPPKRLIYSASTLDFGVPSRFSGSGSGTEFTLTISSLQPEDFATYYCLGYFDCSIADCVAFGGGTKVEIK
modifications: humanized sequence
B7: VL17 with VH24: anti-human tau(pS422) antibody; VH SEQ ID NO: 56, VL SEQ ID NO: 37 (antibody, V domains shown)
VH: EVQLLESGGGLVQPGGSLRLSCAASGFSLSSNAINWVRQAPGKGLEWVGYIAVSGNTYYADSVKGRFTISKDNSKNTVYLQMNSLRAEDTAVYYCGKSNIWGQGTLVTVSS
VL: DIQMTQSPSSLSASVGDRVTITCRSSQSVRTNKLAWFQQKPGQPPKRLIYSASTLDFGVPSRFSGSGSGTEFTLTISSLQPEDFATYYCLGYFDCSIADCVAFGGGTKVEIK
modifications: humanized sequence
B8: VL19 with VH22: anti-human tau(pS422) antibody; VH SEQ ID NO: 54, VL SEQ ID NO: 38 (antibody, V domains shown)
VH: EVQLLESGGGLVQPGGSLRLSCAASGFSLSSNAINWVRQAPGKGLEWVGYIAVSGNTYYADSVKGRFTISRDNSKNTLYLQMNSLRAEDTAVYYCGKSNIWGQGTLVTVSS
VL: AQVMTQSPSSLSASVGDRVTITCRSSQSVRTNKLAWFQQKPGQPPKRLIYSASTLDFGVPSRFSGSGSGTEFTLTISSLQPEDFATYYCLGYFDCSIADCVAFGGGTKVEIK
modifications: humanized sequence
B9: VL19 with VH18: anti-human tau(pS422) antibody; VH SEQ ID NO: 52, VL SEQ ID NO: 38 (antibody, V domains shown)
VH: QQLVESGGGLVQPGGSLRLSCAASGFSLSSNAINWVRQAPGKGLEWVGYIAVSGNTYYADSVKGRFTISRDNSKNTLYLQMNSLRAEDTAVYYCGKSNIWGQGTLVTVSS
VL: AQVMTQSPSSLSASVGDRVTITCRSSQSVRTNKLAWFQQKPGQPPKRLIYSASTLDFGVPSRFSGSGSGTEFTLTISSLQPEDFATYYCLGYFDCSIADCVAFGGGTKVEIK
modifications: humanized sequence
B10: VL19 with VH24: anti-human tau(pS422) antibody; VH SEQ ID NO: 56, VL SEQ ID NO: 38 (antibody, V domains shown)
VH: EVQLLESGGGLVQPGGSLRLSCAASGFSLSSNAINWVRQAPGKGLEWVGYIAVSGNTYYADSVKGRFTISKDNSKNTVYLQMNSLRAEDTAVYYCGKSNIWGQGTLVTVSS
VL: AQVMTQSPSSLSASVGDRVTITCRSSQSVRTNKLAWFQQKPGQPPKRLIYSASTLDFGVPSRFSGSGSGTEFTLTISSLQPEDFATYYCLGYFDCSIADCVAFGGGTKVEIK
modifications: humanized sequence
B11: VL19 with VH01: anti-human tau(pS422) antibody; VH SEQ ID NO: 46, VL SEQ ID NO: 38 (antibody, V domains shown)
VH: QQLVESGGGLVQPGGSLRLSCAASGFSLSSNAINWVRQAPGKGLEWVGYIAVSGNTYYASWAKGRFTISRDNSKNTLYLQMNSLRAEDTAVYYCGKSNIWGQGTLVTVSS
VL: AQVMTQSPSSLSASVGDRVTITCRSSQSVRTNKLAWFQQKPGQPPKRLIYSASTLDFGVPSRFSGSGSGTEFTLTISSLQPEDFATYYCLGYFDCSIADCVAFGGGTKVEIK
modifications: humanized sequence
B12: VL17 with VH18: anti-human tau(pS422) antibody; VH SEQ ID NO: 52, VL SEQ ID NO: 37 (antibody, V domains shown)
VH: QQLVESGGGLVQPGGSLRLSCAASGFSLSSNAINWVRQAPGKGLEWVGYIAVSGNTYYADSVKGRFTISRDNSKNTLYLQMNSLRAEDTAVYYCGKSNIWGQGTLVTVSS
VL: DIQMTQSPSSLSASVGDRVTITCRSSQSVRTNKLAWFQQKPGQPPKRLIYSASTLDFGVPSRFSGSGSGTEFTLTISSLQPEDFATYYCLGYFDCSIADCVAFGGGTKVEIK
modifications: humanized sequence

Molecular target: human tau(pS422) (Homo sapiens, UniProt P10636, S739X)
Assay: BIAcore kinetic screening and kinetic rates of humanized VH/VL combinations
Format: binding
Settings: 25 °C; VH14 or VH20 with VL variants
Procedure: In the following Table characteristics of the different humanized variants of the rabbit light chain variable domain in combination with the humanized heavy chain variable domains VH14 and VH20, respectively, are shown. Binding partner was human tau(pS422).
Kinetic screening was performed according to Schraeml et al. (Schraeml, M. and M. Biehl, Methods Mol. Biol. 901 (2012) 171-181) on a BIAcore 4000 instrument, mounted with a BIAcore CM5 sensor. The BIAcore 4000 instrument was under the control of the software version V1.1. A BIAcore CM5 series S chip was mounted into the instrument and was hydrodynamically addressed and preconditioned according to the manufacturer's instructions. The instrument buffer was HBS-EP buffer (10 mM HEPES (pH 7.4), 150 mM NaCl, 1 mM EDTA, 0.05% (w/v) P20). An antibody capture system was prepared on the sensor surface. A polyclonal goat anti-human antibody with human IgG-Fc specificity (Jackson Lab.) was immobilized at 30 μg/ml in 10 mM sodium acetate buffer (pH 5) to spots 1, 2, 4 and 5 in the instrument's flow cells 1, 2, 3 and 4 at 10,000 RU using NHS/EDC chemistry. In each flow cell the antibodies were captured on spot 1 and spot 5. Spot 2 and spot 4 were used as reference spots. The sensor was deactivated with a 1 M ethanolamine solution. Humanized antibody derivatives were applied at concentrations between 44 nM and 70 nM in instrument buffer supplemented with 1 mg/ml CMD (carboxymethyldextrane). The antibodies were injected at a flow rate of 30 μl/min for 2 minutes. The capture level (CL) of the surface-presented antibodies was measured in rel. response units (RU). The analytes in solution, phosphorylated human tau protein, non-phosphorylated human tau protein and the phosphorylated human tau mutant protein T422S were injected at 300 nM for 3 minutes at a flow rate of 30 μl/minute. The dissociation was monitored for 5 minutes. The capture system was regenerated by a 1 minute injection of 10 mM glycine buffer, pH 1.7 at 30 μL/minute over all flow cells. Two report points, the recorded signal shortly before the end of the analyte injection, denoted as binding late (BL) and the recorded signal shortly before the end of the dissociation time, stability late (SL), were used to characterize the kinetic screening performance. Furthermore, the dissociation rate constant kd (1/s) was calculated according to a Langmuir model and the antibody/antigen complex half-life was calculated in minutes according to the formula ln(2)/(60*kd). The molar ratio (MR) was calculated according to the formula MR=(Binding Late (RU))/(Capture level (RU))*(MW(antibody)/(MW(antigen)). In case the sensor was configured with a suitable amount of antibody ligand capture level, each antibody should be able to functionally bind at least to one analyte in solution, which is represented by a molar ratio of MR=1.0. Then, the molar ratio is also an indicator for the valence mode of analyte binding. The maximum valence can be MR=2 for an antibody binding two analytes, one with each Fab valence.
In another embodiment, kinetic rates were determined at 25° C. and 37° C. using the same experimental setup, but using multiple concentration series of each analyte in solution at 0 nM (buffer), 1.2 nM, 3.7 nM, 11.1 nM, 33.3 nM, 100 nM and 300 nM. From the concentration-dependent binding behavior the kinetic data was calculated using the BIAcore evaluation software according to the manufacturer's instructions and a Langmuir 1.1 model with RMAX global.

Row | kd | t/2 diss | Molecule
1 | 0.00248 s⁻¹ | 5 min | B1
2 | 0.00363 s⁻¹ | 3 min | B2

Same assay, conditions: 25 °C; VL17 or VL19 with VH variants

Row | kd | t/2 diss | Molecule
3 | 0.0007 s⁻¹ | 17 min | B3
4 | 0.002 s⁻¹ | 6 min | B4
5 | 0.002 s⁻¹ | 6 min | B5
6 | 0.00057 s⁻¹ | 20 min | B6
7 | 0.00079 s⁻¹ | 15 min | B7
8 | 0.0021 s⁻¹ | 6 min | B8
9 | 0.0019 s⁻¹ | 6 min | B9
10 | 0.00063 s⁻¹ | 18 min | B10
11 | 0.0019 s⁻¹ | 6 min | B11
12 | 0.0023 s⁻¹ | 5 min | B12
